According to ChEMBL document CHEMBL2073921, “The human T-type amino acid transporter-1: characterization, gene organization, and chromosomal location” (Genomics, 2002):

Tests used:
Details in all cases: Xenopus laevis; Oocyte
[1] = substrate: N[C@@H](Cc1c[nH]c2ccccc12)C(=O)O
Description: (§1) TP_TRANSPORTER: uptake in Xenopus laevis oocytes

[2] = substrate: N[C@@H](Cc1ccc(O)c(O)c1)C(=O)O
Description: as §1

[3] = substrate: N[C@@H](Cc1ccc(O)cc1)C(=O)O
Description: as §1

[4] = substrate: N[C@@H](Cc1ccccc1)C(=O)O
Description: as §1

[5] = substrate: N[C@H](Cc1ccccc1)C(=O)O
Description: as §1

B1: SLC16A10 protein (Homo sapiens), Q05BR4 (protein)
chain: MVLSQEEPDSARGTSEAQPLGPAPTGAAPPPGPGPSDSPEAAVEKVEVELAGPATAEPHEPPEPPEGGWGWLVMLAAMWCNGSVFGIQNACGVLFVSMLETFGSKDDDKMVFKTAWVGSLSMGMIFFCCPIVSVFTDLFGCRKTAVVGAAVGFVGLMSSSFVSSIEPLYLTYGIIFACGCSFAYQPSLVILGHYFKKRLGLVNGIVTAGSSVFTILLPLLLRVLIDSVGLFYTLRVLCIFMFVLFLAGFTYRPLATSTKDKESGGSGSSLFSRKKFSPPKKNFQFCHLQGDSLCSVGSWNTTCTFWILCALCSLGEYAPSLIMNITI
Km [1]: 452 µM | Km [2]: 1210 µM | Km [3]: 636 µM | Km [4]: 740 µM | Km [5]: 2300 µM
